Source: paper PMC12057046, “Elucidation of short linear motif-based interactions of the MIT and rhodanese domains of the ubiquitin-specific protease 8” (Biology Direct, 2025)

B1: TET3 peptide 1705-1720 (methylcytosine dioxygenase TET3), 16-mer library wild type / USP8 rhodanese domain (ubiquitin carboxyl-terminal hydrolase 8, residues 174-317) (parent)
chain 1: GLALWEAKMKQLAERA
chain 2: KCETKEKGAITAKELYTMMTDKNISLIIMDARRMQDYQDSCILHSLSVPEEAISPGVTASWIEAHLPDDSKDTWKKRGNVEYVVLLDWFSSAKDLQIGTTLRSLKDALFKWESKTVLRNEPLVLEGGYENWLLCYPQYTTNAKV

Variants of: B1
Assay: peptide-phage display deep mutational scan (M13, 16-mer library, displayed with a C-terminal GGGSG linker encoded by the 3' flank) selected against the GST-tagged USP8 rhodanese domain, four rounds; NGS counts summed over selection …
Conditions: with USP8 rhodanese domain (ubiquitin carboxyl-terminal hydrolase 8, residues 174-317), 10 µg GST-bait on MaxiSorp, pre-cleared on GST, 2 h at 4 °C, five washes with 0.05% Tween 20 in PBS, not graded, scale: average over two replicas of the peptide's fractional NGS count

Screen value, by site and new letter:
chain 1 M9: S 0.0119; L 4.33e-06; F 1.3e-05; W 0.00223; I 4.74e-05; P 2.45e-05; H 3.75e-05; A 0.00064; Y 3.9e-05; Q 3.16e-05; T 0.000181; V 1.3e-05; N 1.73e-05; R 0.000108
chain 1 E6: H 3.9e-05; V 1.15e-05; A 8.66e-06; F 8.66e-06; Y 1.15e-05; S 0.000221; G 0.000196; D 9.38e-05
chain 1 A7: G 7.04e-05; H 0.00234; W 0.0002; T 0.000404; E 8.66e-06; N 0.000194; L 4.33e-06; F 4.33e-06; Q 0.00623; R 4.33e-06; S 2.3e-05; P 5.46e-05; M 0.000234; V 5.18e-05; Y 2.3e-05; I 3.9e-05
chain 1 G1: E 6.35e-05; N 4.46e-05; K 2.01e-05; Q 8.66e-06; R 4.33e-06
chain 1 Q11: D 0.00724; M 0.000201; N 0.00283; F 4.33e-06; W 2.17e-05; H 0.000267; V 8.66e-06; K 1.15e-05; T 0.000142; S 0.00344; Y 8.66e-05; R 0.000162; G 0.000837; A 3.6e-05; L 0.0108; I 8.66e-06
chain 1 A13: D 2.6e-05; I 1.3e-05; Q 0.00219; L 0.000154; N 0.000273; Y 2.45e-05; G 0.0144; T 3.6e-05; M 5.89e-05; H 0.0027; V 0.0163; K 2.6e-05; P 5.48e-05; E 0.0925
chain 1 A3: V 0.000173; M 0.00023; Y 0.000177; F 4.33e-06; G 3.88e-05; D 0.0209; L 4.33e-06; Q 0.00817; W 9.64e-05; T 5.18e-05; S 0.000145; I 4.33e-06; E 0.064; H 8.66e-06; K 1.3e-05; P 0.000452
chain 1 L4: E 9.1e-05; N 0.00113; I 0.211; F 0.000225; K 4.33e-06; T 0.000596; V 0.00974; M 0.0286; S 4.74e-05; D 4.33e-06; R 0.000374; P 4.33e-06; A 9.18e-05; Q 0.00044; H 1.3e-05; G 2.3e-05
chain 1 E14: S 7.32e-05; T 8.66e-06; L 0.000367; G 0.000341; W 4.33e-06; A 4.18e-05; N 6.5e-05; Q 4.03e-05; D 2.73e-05; I 4.33e-06; M 0.000615; Y 2.3e-05; F 0.000199; V 0.000238
chain 1 W5: G 7.36e-05; H 4.33e-06; P 4.33e-05; K 8.66e-06; M 0.00029; S 7.78e-05; R 1.58e-05; L 1.15e-05; V 4.33e-06; T 4.33e-06; F 4.33e-06
chain 1 K8: P 1.73e-05; Q 4.33e-06; E 4.33e-06; N 2.3e-05
chain 1 R15: E 0.00031; H 0.000187; V 2.45e-05; N 8.62e-05; Y 0.0485; W 0.000125; T 0.00935; A 4.33e-06; Q 0.0216; G 0.000816; D 7.21e-05; K 0.000386; L 0.000427; M 0.000392; P 0.0867; F 2.3e-05; S 0.0149
chain 1 A16: N 0.00504; T 0.00395; I 0.00523; S 0.00296; F 4.33e-06; Q 0.00138; H 2.3e-05; D 0.027; E 0.00115; R 8.66e-06; G 6.5e-05; Y 1.58e-05; V 0.00901; L 6.61e-05; P 0.0179; M 0.000143
